Reference: patent US20210024620A1

How the values were obtained:
rat FcRn (rat) [1] = target: rat FcRn (rat) (UniProt P13599); experiment: Biacore SPR, pH 7.4
[2] = target: biotinylated human FcRn (human) (UniProt P55899); experiment: Biacore SPR, pH 7.4
rat FcRn (rat) [3] = target: rat FcRn (rat) (UniProt P13599); experiment: Biacore, pH 6.0, apparent KD
[4] = target: biotinylated human FcRn (human) (UniProt P55899); experiment: Biacore, pH 6.0, apparent KD
rat FcRn (rat) [5] = target: rat FcRn (rat) (UniProt P13599); experiment: Biacore SPR, pH 7.4, 1000 nM antibody
[6] = target: biotinylated human FcRn (human) (UniProt P55899); experiment: Biacore SPR, pH 7.4, 1000 nM antibody
[7] = target: biotinylated human FcRn (human) (UniProt P55899); experiment: Biacore SPR, pH 6.0
rat FcRn (rat) [8] = target: rat FcRn (rat) (UniProt P13599); experiment: Biacore SPR, pH 6.0
[9] = target: biotinylated human FcRn (human) (UniProt P55899); experiment: Biacore SPR, pH 6.0; remark: listed apart in the source
[10] = target: FcRn immobilised on the FcRn affinity column (biotinylated cynoFcRn in one experiment, biotinylated hFcRn in another); experiment: FcRn affinity chromatography, linear pH gradient; species of the immobilised FcRn not given
rat FcRn (rat) [11] = target: rat FcRn (rat) (UniProt P13599); experiment: Biacore, pH 6.0
[12] = target: biotinylated human FcRn (human) (UniProt P55899); experiment: Biacore, pH 6.0
[13] = target: biotinylated human FcRn (p51 subunit residues 24-297 with C-terminal Avi-tag; beta2-microglobulin residues 21-119) (human) (UniProt P55899); experiment: Biacore; inverse ratio (RU at pH 7.4 over affinity at pH 6.0)
biotinylated human FcRn (p51 subunit residues 24-297 with C-terminal Avi-tag; beta2-microglobulin residues 21-119) (human), sequence (P55899 24-297 limits assumed, chain 1 of 2): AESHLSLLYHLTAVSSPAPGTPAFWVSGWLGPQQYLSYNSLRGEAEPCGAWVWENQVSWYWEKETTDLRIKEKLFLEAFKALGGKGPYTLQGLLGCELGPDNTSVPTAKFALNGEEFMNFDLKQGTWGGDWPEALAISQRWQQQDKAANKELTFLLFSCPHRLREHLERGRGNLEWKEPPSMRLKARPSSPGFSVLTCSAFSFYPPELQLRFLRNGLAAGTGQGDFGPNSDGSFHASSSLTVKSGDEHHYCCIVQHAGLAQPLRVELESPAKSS
biotinylated human FcRn (p51 subunit residues 24-297 with C-terminal Avi-tag; beta2-microglobulin residues 21-119) (human), sequence (P61769 21-119 limits assumed, chain 2 of 2, further chain): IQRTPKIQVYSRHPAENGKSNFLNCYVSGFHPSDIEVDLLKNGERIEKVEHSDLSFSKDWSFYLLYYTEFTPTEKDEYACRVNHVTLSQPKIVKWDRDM

rat FcRn (rat) [14] = target: rat FcRn (rat) (UniProt P13599); experiment: Biacore, pH 7.4, steady state response
[15] = target: biotinylated human FcRn (human) (UniProt P55899); experiment: Biacore, pH 7.4, steady state response
[16] = target: biotinylated human FcRn (p51 subunit residues 24-297 with C-terminal Avi-tag; beta2-microglobulin residues 21-119) (human) (UniProt P55899); experiment: Biacore SPR, pH 7.4, steady state
[17] = target: biotinylated human FcRn (p51 subunit residues 24-297 with C-terminal Avi-tag; beta2-microglobulin residues 21-119) (human) (UniProt P55899); experiment: Biacore; affinity at pH 6.0 (M^-1) over steady state RU at pH 7.4
[18] = target: biotinylated human FcRn (p51 subunit residues 24-297 with C-terminal Avi-tag; beta2-microglobulin residues 21-119) (human) (UniProt P55899); experiment: Biacore SPR, pH 6.0
[19] = target: Human CD16a (FcγRIIIa V158) with C-terminal HPC4 tag (human) (UniProt P08637); experiment: Biacore, FcγRIIIa V158 captured, steady-state fit, apparent KD
Human CD16a (FcγRIIIa V158) with C-terminal HPC4 tag (human), sequence (P08637 17-208 F176V): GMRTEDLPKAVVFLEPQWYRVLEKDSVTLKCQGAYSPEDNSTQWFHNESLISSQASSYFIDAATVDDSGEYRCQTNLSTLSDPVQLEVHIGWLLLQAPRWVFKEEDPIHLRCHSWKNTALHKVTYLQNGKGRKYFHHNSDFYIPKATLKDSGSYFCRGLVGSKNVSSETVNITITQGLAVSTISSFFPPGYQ

[20] = target: biotinylated human FcRn (human) (UniProt P55899); experiment: Biacore, biotin-captured hFcRn, pH 7.4, 1000 nM antibody
[21] = target: biotinylated cynomolgus FcRn (cynomolgus) (UniProt Q8SPV9); experiment: Biacore, biotin-captured cFcRn, pH 6.0
[22] = target: biotinylated cynomolgus FcRn (cynomolgus) (UniProt Q8SPV9); experiment: Biacore, biotin-captured cFcRn, pH 7.4
[23] = target: biotinylated human FcRn (human) (UniProt P55899); experiment: Biacore, biotin-captured hFcRn, pH 8.0, 1000 nM antibody
[24] = target: biotinylated human FcRn (human) (UniProt P55899); experiment: Biacore, biotin-captured hFcRn, pH 9.0, 1000 nM antibody
[25] = target: biotinylated cynomolgus FcRn (cynomolgus) (UniProt Q8SPV9); experiment: Biacore, biotin-captured cFcRn, pH 7.4, 1000 nM antibody
[26] = target: biotinylated human FcRn (human) (UniProt P55899); experiment: Biacore, biotin-captured hFcRn, pH 7.4
[27] = target: biotinylated human FcRn (human) (UniProt P55899); experiment: Biacore, biotin-captured hFcRn, pH 8.0
[28] = target: biotinylated cynomolgus FcRn (cynomolgus) (UniProt Q8SPV9); experiment: Biacore, biotin-captured cFcRn, pH 8.0, 1000 nM antibody
[29] = target: biotinylated cynomolgus FcRn (cynomolgus) (UniProt Q8SPV9); experiment: Biacore, biotin-captured cFcRn, pH 8.0
[30] = target: biotinylated cynomolgus FcRn (cynomolgus) (UniProt Q8SPV9); experiment: Biacore, biotin-captured cFcRn, pH 9.0, 1000 nM antibody
[31] = target: biotinylated human FcRn (human) (UniProt P55899); experiment: Biacore, biotin-captured hFcRn, pH 6.0

rat FcRn (rat), sequence (P13599 23-298 limits assumed, chain 1 of 2): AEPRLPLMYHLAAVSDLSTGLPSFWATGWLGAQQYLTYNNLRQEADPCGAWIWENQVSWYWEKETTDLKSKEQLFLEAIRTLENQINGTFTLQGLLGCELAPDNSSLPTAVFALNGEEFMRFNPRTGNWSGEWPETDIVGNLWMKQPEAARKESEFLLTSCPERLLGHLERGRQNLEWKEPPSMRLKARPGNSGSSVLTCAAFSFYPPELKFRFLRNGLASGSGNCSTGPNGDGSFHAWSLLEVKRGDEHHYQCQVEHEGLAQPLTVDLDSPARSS
rat FcRn (rat), sequence (P07151 21-119 limits assumed, chain 2 of 2, further chain): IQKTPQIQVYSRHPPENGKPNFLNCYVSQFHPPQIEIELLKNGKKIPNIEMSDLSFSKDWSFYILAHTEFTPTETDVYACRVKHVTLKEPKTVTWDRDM
biotinylated human FcRn (human), sequence (P55899 24-297 limits assumed, chain 1 of 2): as the sequence (P55899 24-297 limits assumed, chain 1 of 2) above
biotinylated human FcRn (human), sequence (P61769 21-119 limits assumed, chain 2 of 2, further chain): as the sequence (P61769 21-119 limits assumed, chain 2 of 2, further chain) above

Substance | Steady State RU (rat FcRn (rat) [1]) | Steady State RU [2] | Kd (rat FcRn (rat) [3]) | Kd [4] | Kd (rat FcRn (rat) [8]) | Kd [9] | FcRn affinity column elution pH [10] | Steady State Binding, pH 7.4 (RU) [16] | Ka [18] | Steady State RU [20] | Kd [21] | Kd [22] | Steady State RU [23] | Steady State RU [24] | Steady State RU [25] | Kd [26] | Kd [27] | Steady State RU [28] | Kd [29] | Steady State RU [30] | further results
mAb1 T307Q (antibody) | 31.3 RU | 6.6 RU | 58 nM | 5720 nM | 58 nM | 5720 nM | 7.86 pH | – | – | – | – | – | – | – | – | – | – | – | – | – | Steady State RU (rat FcRn (rat) [5]): 24.3 RU; Steady State RU [6]: 6.4 RU; Kd [7]: > 3000 nM
mAb1 YDQN (M252Y/T256D/T307Q) (antibody) | – | – | 5.1 nM | 115 nM | – | – | 8.51 pH | 19.8 RU | 8.7e+06 M⁻¹ | – | – | – | – | – | – | – | – | – | – | – | koff (rat FcRn (rat) [11]): 0.0003 s⁻¹; kon (rat FcRn (rat) [11]): 5000 M⁻¹ s⁻¹; koff [12]: 0.028 s⁻¹; kon [12]: 250000 M⁻¹ s⁻¹; Ratio (pH 6.0/pH 7.4) [13]: 2.28e-06; Steady State RU (rat FcRn (rat) [14]): 65.2 RU; Steady State RU [15]: 19.8 RU; Ratio (pH 6.0/pH 7.4) [17]: 439000; Kd [19]: 1060 nM
mAb1 YTWY (M252Y/T307W/N434Y) (antibody) | – | – | – | – | – | – | – | 75.1 RU | 1.06e+08 M⁻¹ | 133 RU | 7.7 nM | 70 nM | 232 RU | 4 RU | 159 RU | 65 nM | 2500 nM | 292 RU | 1100 nM | 6.5 RU | –
mAb1 YEQY (M252Y/T256E/T307Q/N434Y) (antibody) | – | – | – | – | – | – | – | – | – | 136 RU | 3.7 nM | 80 nM | 213 RU | 2.4 RU | 157 RU | 79 nM | 2100 nM | 264 RU | 2500 nM | 3.4 RU | Kd [31]: 4.8 nM
mAb1 T307W (antibody) | 21.9 RU | – | 111 nM | 8740 nM | 111 nM | 8740 nM | 7.75 pH | – | – | – | – | – | – | – | – | – | – | – | – | – | Steady State RU (rat FcRn (rat) [5]): 19.2 RU; Kd [7]: > 3000 nM
mAb1 M252Y (antibody) | 50.5 RU | – | 25 nM | 3100 nM | 25 nM | 3100 nM | 7.88 pH | – | – | – | – | – | – | – | – | – | – | – | – | – | Steady State RU (rat FcRn (rat) [5]): 57.7 RU; Kd [7]: > 3000 nM
YTEKF hIgG1 benchmark (M252Y/S254T/T256E/H433K/N434F) (antibody) | – | – | – | – | – | – | – | – | – | 132 RU | 8.3 nM | 76 nM | – | 2.7 RU | 152 RU | 74 nM | 2400 nM | 268 RU | 3200 nM | 3.8 RU | Kd [31]: 15 nM
mAb1 YDQF (M252Y/T256D/T307Q/N434F) (antibody) | – | – | – | – | – | – | – | 68.6 RU | 1.11e+08 M⁻¹ | 140 RU | 4.3 nM | 95 nM | 196 RU | 1.4 RU | 176 RU | 82 nM | 2700 nM | 245 RU | 2900 nM | 2.2 RU | –
mAb1 wildtype (WT) human IgG1 antibody | 13 RU | 4.2 RU | – | – | 207 nM | – | 7.37 pH | – | – | 0.2 RU | 660 nM | – | 0.2 RU | – | 1.5 RU | – | – | 1.4 RU | – | – | Kd [31]: 1300 nM; Steady State RU (rat FcRn (rat) [5]): 12.2 RU; Steady State RU [6]: 4.3 RU; Kd [7]: 2380 nM
mAb1 YDTY (M252Y/T256D/N434Y) (antibody) | – | – | – | – | – | – | – | 65.4 RU | 9.01e+07 M⁻¹ | 120 RU | 13 nM | 64 nM | 141 RU | 0.6 RU | 134 RU | 76 nM | 8700 nM | 183 RU | 2500 nM | 1.9 RU | Kd [31]: 15 nM
mAb1 YEQN (M252Y/T256E/T307Q) (antibody) | – | – | 7.8 nM | 218 nM | – | – | 8.12 pH | 15.2 RU | 4.59e+06 M⁻¹ | – | – | – | – | – | – | – | – | – | – | – | koff (rat FcRn (rat) [11]): 0.0004 s⁻¹; kon (rat FcRn (rat) [11]): 5000 M⁻¹ s⁻¹; koff [12]: 0.041 s⁻¹; kon [12]: 190000 M⁻¹ s⁻¹; Ratio [13]: 3.31e-06; Steady State RU (rat FcRn (rat) [14]): 61.8 RU; Steady State RU [15]: 15.2 RU; Ratio (pH 6.0/pH 7.4) [17]: 302000; Kd [19]: 1620 nM
mAb1 YTWN (M252Y/T307W) (antibody) | 66.1 RU | 15.9 RU | 5.2 nM | 118 nM | 5.21 nM | 118 nM | 8.14 pH | 15.9 RU | 8.47e+06 M⁻¹ | – | – | – | – | – | – | – | – | – | – | – | koff (rat FcRn (rat) [11]): 0.0011 s⁻¹; kon (rat FcRn (rat) [11]): 21000 M⁻¹ s⁻¹; koff [12]: 0.057 s⁻¹; kon [12]: 480000 M⁻¹ s⁻¹; Steady State RU (rat FcRn (rat) [14]): 66.1 RU; Steady State RU [15]: 15.9 RU; Ratio (pH 6.0/pH 7.4) [17]: 533000; koff (rat FcRn (rat) [8]): 0.00109 s⁻¹; kon (rat FcRn (rat) [8]): 208000 M⁻¹ s⁻¹; koff [9]: 0.057 s⁻¹; kon [9]: 483000 M⁻¹ s⁻¹; Kd [19]: 896 nM
mAb1 YDQY (M252Y/T256D/T307Q/N434Y) (antibody) | – | – | – | – | – | – | – | 80.2 RU | 2.35e+08 M⁻¹ | 157 RU | 1.9 nM | 56 nM | 264 RU | 4.6 RU | 196 RU | 50 nM | 670 nM | 325 RU | 490 nM | 6.3 RU | Kd [31]: 2.7 nM
mAb1 YTTY (M252Y/N434Y) (antibody) | 67.9 RU | 54.1 RU | – | – | 0.26 nM | 8.32 nM | – | 54.1 RU | 1.2e+08 M⁻¹ | 125 RU | 20 nM | 83 nM | 188 RU | – | 147 RU | 65 nM | 3300 nM | 238 RU | 1300 nM | 1 RU | –
mAb1 YETN (M252Y/T256E) (antibody) | 55.1 RU | 9.8 RU | 8.4 nM | 128 nM | 8.43 nM | 128 nM | 7.83 pH | 9.8 RU | 7.81e+06 M⁻¹ | – | – | – | – | – | – | – | – | – | – | – | koff (rat FcRn (rat) [11]): 0.0027 s⁻¹; kon (rat FcRn (rat) [11]): 32000 M⁻¹ s⁻¹; koff [12]: 0.076 s⁻¹; kon [12]: 590000 M⁻¹ s⁻¹; Ratio (pH 6.0/pH 7.4) [13]: 1.25e-06; Steady State RU (rat FcRn (rat) [14]): 55.1 RU; Steady State RU [15]: 9.8 RU; Ratio (pH 6.0/pH 7.4) [17]: 797000; koff (rat FcRn (rat) [8]): 0.00273 s⁻¹; kon (rat FcRn (rat) [8]): 324000 M⁻¹ s⁻¹; koff [9]: 0.0757 s⁻¹; kon [9]: 592000 M⁻¹ s⁻¹; Kd [19]: 878 nM
mAb1 YEWY (M252Y/T256E/T307W/N434Y) (antibody) | – | – | – | – | – | – | – | – | – | 141 RU | 6.1 nM | 63 nM | 245 RU | – | 162 RU | 61 nM | 1900 nM | 303 RU | 1300 nM | 5.4 RU | –
mAb1 N434Y (antibody; other documents disagree on this pair) | – | 25.5 RU | – | 137 nM | – | 137 nM | – | – | – | – | – | – | – | – | – | – | – | – | – | – | koff [12]: 0.05 s⁻¹; kon [12]: 360000 M⁻¹ s⁻¹; Steady State RU [6]: 22.6 RU; koff [7]: 0.05 s⁻¹; kon [7]: 360000 M⁻¹ s⁻¹; koff [9]: 0.052 s⁻¹; kon [9]: 359000 M⁻¹ s⁻¹
